This data set concerns Cc1[nH]c2ccccc2c1CCN. Kind of data set: steady-state kinetics of halogenation. To be noted: 21 °C. It is filed as biochemical, Lentzea aerocolonigenes.

For orientation: Km means the substrate concentration at which the rate is half of its maximum. In general, kcat refers to the maximal rate divided by the concentration of active sites. Broadly, the kcat/Km is the turnover number divided by the Michaelis constant.

Turning to RebH (Lentzea aerocolonigenes), the Km was 16.8 ± 3.8 µM, the kcat turned out to be 0.06 ± 0.0057 s⁻¹ and the kcat/Km stood at 3600 M⁻¹ s⁻¹.
As for “RebH (Lentzea aerocolonigenes; E423D/E461G/K145M/M71V/N166S/Q494R/S130L/S2P)”, for the setting “variant 3-LSR”, the Km amounted to 40.2 ± 3.7 µM, the kcat stood at 0.013 ± 0.00036 s⁻¹ and the kcat/Km worked out at 330 M⁻¹ s⁻¹.

Source of the values: paper PMC4124618.
